Results on two molecules are retold here after patent publication WO2009138413A1 (dated 2009).

The target of one experiment is human IL-13 (human, UniProt P35225 35-146). Put plainly: cell-based or functional assay.
The target of the next experiment is cynomolgus IL-13 (cynomolgus, UniProt Q0PW92 21-132). As to the kind of experiment: cell-based or functional assay.
cynomolgus IL-13, sequence (Q0PW92 entry or part of it): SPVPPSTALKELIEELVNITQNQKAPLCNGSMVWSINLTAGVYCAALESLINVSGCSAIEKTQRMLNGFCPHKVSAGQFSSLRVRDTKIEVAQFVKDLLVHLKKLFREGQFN

human IL-13, sequence (P35225 35-146 limits assumed): as the sequence (Q0PW92 entry or part of it) above, with S1G, K10R, V42M, N67S, R83H, V100L counted along it

B1: DOM10-53-474 (VHH)
VHH: GVQLLESGGGLVQPGGSLRLSCAASGFTFAWYDMGWVRQAPGKGLEWVSSIDWHGEVTYYADSVKGRFTISRDNSKNTLYLQMNSLRAEDTAVYYCATAEDEPGYDYWGQGTLVTVSS
With B1, in the experiment with human IL-13, the “EC50, FIG. 1A HEK STAT6 assay with human IL-13” value is 0.72 nM. Besides, in the experiment with cynomolgus IL-13, the “EC50, FIG. 1B HEK STAT6 assay with cynomolgus IL-13” value was found to be 10.8 nM.

B2: DOM10-275-78 (VHH)
VHH: EVQLLESGGGLVQPGGSLRLSCVASGFTFDVAEMDWVRQAPGKGLEWVSTISPSRRGTYYADSVKGRFTISRDNSKNTLYLQMNSLRAEDTAVYYCAKAYTGRSLWGPGTLVTVSS
For B2, in the experiment with human IL-13, the “EC50, FIG. 1A HEK STAT6 assay with human IL-13, sample JAL050308_20p” value turned out to be 2.65 nM and the “EC50, FIG. 1A HEK STAT6 assay with human IL-13, sample JAL050308_20s” value stood at 2.42 nM. For the same molecule, in the experiment with cynomolgus IL-13, the “EC50, FIG. 1B HEK STAT6 assay with cynomolgus IL-13, sample JAL050308_20p” value turned out to be 1.37 nM and the “EC50, FIG. 1B HEK STAT6 assay with cynomolgus IL-13, sample JAL050308_20s” value is 1.37 nM.
